Substitutions are numbered along the chain they refer to. Names and notes keep the numbering of the source.
T1: human MSR1 extracellular domain expressed with a N-terminal nonahistidine tag (His9-hMSR1); R&D Systems, Cat … (human, UniProt P21757 77-451)
T1 construct: extracellular domain; Bought reagent; also called His-hMSR1; 9xHis-hMSR1
T1 sequence: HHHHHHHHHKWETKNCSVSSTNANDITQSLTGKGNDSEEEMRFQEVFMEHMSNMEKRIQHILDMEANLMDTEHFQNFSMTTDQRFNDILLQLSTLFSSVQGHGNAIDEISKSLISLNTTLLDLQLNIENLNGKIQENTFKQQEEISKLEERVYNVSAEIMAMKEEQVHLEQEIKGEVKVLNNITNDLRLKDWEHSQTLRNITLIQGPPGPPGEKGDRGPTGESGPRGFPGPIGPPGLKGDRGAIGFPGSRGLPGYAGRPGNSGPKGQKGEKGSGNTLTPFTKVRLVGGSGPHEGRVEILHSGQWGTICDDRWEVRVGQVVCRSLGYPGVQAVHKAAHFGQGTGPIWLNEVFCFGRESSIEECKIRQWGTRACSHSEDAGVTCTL

T2: mouse MSR1 extracellular domain expressed with a N-terminal nonahistidine tag (His9-mMSR1); R&D Systems, Cat … (mouse, UniProt P30204 79-458)
T2 construct: extracellular domain; not shown: N-terminal nonahistidine tag
T2 sequence (looked up): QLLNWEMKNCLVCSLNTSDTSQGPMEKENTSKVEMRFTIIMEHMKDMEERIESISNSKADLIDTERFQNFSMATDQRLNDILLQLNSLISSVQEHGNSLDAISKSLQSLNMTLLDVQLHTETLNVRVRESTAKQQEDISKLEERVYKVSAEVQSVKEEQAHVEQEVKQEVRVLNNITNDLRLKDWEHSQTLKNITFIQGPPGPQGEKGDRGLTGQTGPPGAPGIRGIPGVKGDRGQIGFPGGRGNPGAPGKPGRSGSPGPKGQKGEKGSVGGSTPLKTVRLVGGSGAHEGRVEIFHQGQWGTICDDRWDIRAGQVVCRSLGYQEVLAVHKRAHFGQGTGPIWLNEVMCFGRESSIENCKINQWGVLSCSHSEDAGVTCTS

T3: mouse MSR1 on RAW264.7 cells (mouse, UniProt P30204 1-458)
T3 construct: whole, on cells; also called MSR1 positive RAW264.7 cells
T3 sequence (looked up): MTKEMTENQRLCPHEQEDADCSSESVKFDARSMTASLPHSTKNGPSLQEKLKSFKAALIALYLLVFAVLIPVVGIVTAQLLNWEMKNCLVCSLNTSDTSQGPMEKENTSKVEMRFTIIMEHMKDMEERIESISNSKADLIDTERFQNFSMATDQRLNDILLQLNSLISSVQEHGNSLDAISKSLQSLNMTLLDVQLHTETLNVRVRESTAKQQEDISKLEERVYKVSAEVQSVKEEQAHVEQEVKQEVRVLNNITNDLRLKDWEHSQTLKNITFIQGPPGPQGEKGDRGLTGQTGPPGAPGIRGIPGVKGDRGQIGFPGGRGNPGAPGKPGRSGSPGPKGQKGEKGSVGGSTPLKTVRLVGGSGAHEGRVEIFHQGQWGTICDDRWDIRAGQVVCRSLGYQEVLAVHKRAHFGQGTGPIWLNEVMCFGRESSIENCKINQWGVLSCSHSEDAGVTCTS

T4: human MSR1 extracellular domain expressed with a N-terminal nonahistidine tag (human, UniProt P21757 77-451)
T4 construct: extracellular domain; also called His9-hMSR1; His-hMSR1
T4 sequence: T1 sequence

T5: full length human MSR1 with a C-terminal Myc tag, on HEK293.Myc.hMSR1 cells (human, UniProt P21757 1-451)
T5 sequence (looked up): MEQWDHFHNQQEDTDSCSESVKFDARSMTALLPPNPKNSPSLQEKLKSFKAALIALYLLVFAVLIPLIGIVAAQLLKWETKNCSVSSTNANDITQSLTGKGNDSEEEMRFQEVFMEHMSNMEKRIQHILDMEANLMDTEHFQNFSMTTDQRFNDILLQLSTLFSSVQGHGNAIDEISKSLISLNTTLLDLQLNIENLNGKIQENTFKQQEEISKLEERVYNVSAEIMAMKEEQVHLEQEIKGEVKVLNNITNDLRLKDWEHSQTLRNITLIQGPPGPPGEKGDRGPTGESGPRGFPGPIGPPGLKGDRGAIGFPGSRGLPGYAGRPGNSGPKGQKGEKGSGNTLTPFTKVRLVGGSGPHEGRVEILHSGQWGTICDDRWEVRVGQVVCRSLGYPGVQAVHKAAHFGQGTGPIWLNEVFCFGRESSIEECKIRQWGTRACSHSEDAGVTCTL

B1: H1H21234N-N297Q-LP1 (antibody, human IgG1, V domains shown)
VH: QVQLQESGPGLVKPSETLSLTCTVTGGSISRNYWSWIRQPPGKGLEWIGYIYYSGSIDYNPSLKSRVTISVDTSKNQFSLKLSSMTAADTAVYYCARDRWNWKYGMDVWGQGTTVIVSS
VL: EIVLTQSPGTLSLSPGERATLSCRASQTVRNNYLAWYHQKPGQAPRLLIYGASSRATGIPDRFSGSGSGTDFTLTISRLEPEDFTVYYCHQYGNSPWTFGQGTKMEIKR
modifications: LXR agonist linker-payload LP1 clicked to azido-PEG3-amine on Q295 and Q297 (EU) of the heavy chain constant region
notes: antibody-drug conjugate; human IgG1 Fc with N297Q (EU); also called H1H21234N-LP1
B2: H1H27731P-N297Q-LP1 (antibody, V domains shown)
VH: QLQLQESGPGLVKPSETLSLTCTVSGGSISRISYYWGWIRQPPGKGLEWIGSIYDSGSTYYNPSLKSRVTISIDTSKNQFSLKLSSVTAADTAVYYCVRYSSSSAFAFDYWGQGTLVTVSS
VL: DIQMTQSPSSVSASVGDRVTITCRASQGISSWLAWYQQKPGKAPKLLIYAASSLQSGVPSRFSGSGSGTDFTLTISSLQPEDFATYYCQQANSFPFTFGPGTKVDIKR
modifications: LXR agonist linker-payload LP1 clicked to azido-PEG3-amine on Q295 and Q297 (EU) of the heavy chain constant region
notes: antibody-drug conjugate; human IgG1 Fc with N297Q (EU); also called H1H27731P-LP1
B3: H1H27754P-N297Q-LP1 (antibody, human IgG1, V domains shown)
VH: EVQLVESGGGLVQPGGSLRLSCAASGFTFRTYAMTWVRQAPGKGLDWVSAITGDGGNTYYADSVKGRFTISRDNSKNTLYLQMNSLRAEDTAIYYCAKDQRFSFALYYFDYWGQGTLVTVSS
VL: B2 VL with K42N, S52F, S93N, F96W, P100Q, D105E
modifications: LXR agonist linker-payload LP1 clicked to azido-PEG3-amine on Q295 and Q297 (EU) of the heavy chain constant region
notes: antibody-drug conjugate; human IgG1 Fc with N297Q (EU); also called H1H27754P-LP1
B4: H1H27754P-N297Q (antibody, human IgG1, V domains shown)
VH: B3 VH
VL: B2 VL with K42N, S52F, S93N, F96W, P100Q, D105E
notes: human IgG1 Fc with N297Q (EU)
B5: H1H27732P-N297Q-LP1 (antibody, human IgG1, V domains shown)
VH: QLQLQESGPGLVKPSETLSLTCTVSGGSISSSTYYWGWIRQPPGKGLEWIGSFYYSGSTYYNPSLKSRVTISVGTSKNQFSLKLSSVTAADTAVYFCARGGLLGRPFVIWGQGTMVTVSS
VL: DIQMTQSPSSLSASVGDRVTITCRASQGIRNDLGWYQQKPGKAPKRLIYAASSLQSGVPSRFSGSGSGTEFTLTISSLQPEDFATYYCLQHNSYPLTFGGGTKVEIKR
modifications: LXR agonist linker-payload LP1 clicked to azido-PEG3-amine on Q295 and Q297 (EU) of the heavy chain constant region
notes: antibody-drug conjugate; human IgG1 Fc with N297Q (EU); also called H1H27732P-LP1
B6: H1H27766P-N297Q (antibody, human IgG1, V domains shown)
VH: EVQLVESGGGLVQPGGSLRLSCAASGFTFSSFAMSWVRQAPGKELEWVSSISGRGGSTYYADSVRGRFTISRDNSKITLYLQMNSLRAEDTAVYYCAKDIVFRYTSSAYWYFDLWGRGTLVTVSS
VL: not shown
notes: human IgG1 Fc with N297Q (EU); also called H1H27766P2-N297Q
B7: H1H27732P-N297Q (antibody, human IgG1, V domains shown)
VH: B5 VH
VL: B5 VL
notes: human IgG1 Fc with N297Q (EU)
B8: H2aM25690N (antibody, V domains shown)
VH: EVQLLESGGGLVQPGGSLRLSCAASGFTFSNYAMTWVRQAPGTGLEWVSAISGRGSNTYYTDSVKGRFTISRDNSKNMLYLQMNSLRAEDTASYYCAKDRFTTVGNWFDPWGQGTLVTVSS
VL: DIQMTQSPSSLSASVGDRVTITCRASQSISSYLNWYQQKPGKAPKLLIYAASSLQNGVPSRFSGSGSGTDFTLTISSLQPEDFATYYCQQSYSSLPITFGQGTRLDIKR
notes: Human variable domains with mouse IgG2a Fc; tied by the numerical identifier
B9: H2aM21232N (antibody, V domains shown)
VH: QVQLQESGPGLVKPSETLSLTCTVSGGSISSYYWSWIRQPPGKGLEWIGYIYYSGSANYNPSLKSRVTISVDTSKNQFSLKLSSVTAADTAVYYCVRDRDLLLDHWGQGTLVTVSS
VL: not shown
notes: Human variable domains with mouse IgG2a Fc
B10: H1H27732P-N297Q (antibody, human IgG1, V domains shown)
VH: B5 VH
VL: B5 VL
notes: human IgG1 Fc with N297Q
B11: H1H27756P-N297Q (antibody, human IgG1, V domains shown)
VH: QVQLVESGGGVVQPGRSLRLSCAASGFTFSNYDMHWVRQAPGKGLEWMAVISYDGINKYYADSVKGRFTISRDNSKNTLYLQMNSLRAEDTAVYYCAKGTYSWYFDLWGRGTLVTVSS
VL: not shown
notes: human IgG1 Fc with N297Q
B12: H1H27760P2-N297Q (antibody, human IgG1, V domains shown)
VH: EVQLVESGGGLVQPGRSLRLSCAASGFTFDAYAMHWVRQAPGKGLEWVSGISWNSGSIGYADSVKGRFTISRDNAKNSLYLQMNSLREEDTALYYCAKDKILELYYYGMDVWGQGTTVTVSS
VL: not shown
notes: human IgG1 Fc with N297Q; also called H1H27760P-N297Q
B13: H1H27778P2-N297Q (antibody, human IgG1, V domains shown)
VH: EVQLVESGGGLEQPGGSLRLSCAASGFTFSSYAMSWVRQAPGKGLEWVSVISGSGGYTNYADSVKGRFTISRDNSKNTLYLQMNRLRAEDSAVYYCARHNWNYDYYGMDVWGQGTTVTVSS
VL: not shown
notes: Human IgG1 Fc with N297Q; also called H1H27778P-N297Q
B14: H1H27771P2-N297Q (antibody, V domains shown)
VH: EVQLVESGGGLVQPGGSLRLSCAASGFTFSSYGMNWVRQAPGKGLEWVSVISGSGGSTYYADSVKGRFTISRDNSKNTLYLQMNSLRAEDTAVYYCAKDRWTYYYDSSGSPFDYWGQGTLVTVSS
VL: not shown
notes: Human IgG1 Fc with N297Q; also called H1H27771P-N297Q

Biological target: T1, human MSR1 extracellular domain …
Assay: SPR Biacore T200, 25 C, antibody captured by anti-human Fc, His9-hMSR1 injected;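 further: running buffer HBS-ET pH 7.4, rates from sensorgrams fitted to a 1:1 model including mass transport limitation, KD and half-life derived from the kinetic constants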
Procedure: (§1) All binding studies were performed in 10 mM HEPES, 300 mM NaCl, 3 mM EDTA, and 0.05% v/v Surfactant Tween-20, pH 7.4 (HBS-ET) running buffer at 25° C.
(§2) The association rate (kₐ) and dissociation rate (kd) were determined by fitting the real-time binding sensorgrams to a 1:1 binding model with mass transport limitation using Scrubber 2.0c curve-fitting software. Binding dissociation equilibrium constant (KD) and dissociative half-life (t½) were calculated from the kinetic rates as:

kon [M⁻¹ s⁻¹] | Binder
490000 | B1
128000 | B2
177000 | B3
200000 | B4
150000 | B5
172000 | B6

Biological target: T1, human MSR1 extracellular domain …
Assay: SPR Biacore T200, 25 C, antibody captured by anti-human Fc, His9-hMSR1 injected; no dissociation seen, kd fixed at 1.00E-05;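 on kon: running buffer HBS-ET pH 7.4, rates from sensorgrams fitted to a 1:1 model including mass transport limitation, KD and half-life derived from the kinetic constants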
Procedure: as §1, §2

Kd [pM] | koff [s⁻¹] | t½ [h] | Binder
≤ 20.4 | ≤ 1e-05 | ≥ 19.3 | B1
≤ 78 | ≤ 1e-05 | ≥ 19.3 | B2
≤ 56.4 | ≤ 1e-05 | ≥ 19.3 | B3
≤ 49.9 | ≤ 1e-05 | ≥ 19.3 | B4
≤ 45 |  | ≥ 19.3 | B7
≤ 66 | ≤ 1e-05 | ≥ 19.3 | B5
≤ 58.3 | ≤ 1e-05 | ≥ 19.3 | B6

Biological target: T2, mouse MSR1 extracellular domain …
Assay: BLI Octet, 25 C, antibody captured

binding result | Binder
no binding (tested: 100 nM) | B8
no binding (tested: 100 nM) | B9

Biological target: T3, mouse MSR1 on RAW264.7 cells
Assay: flow cytometry, RAW264.7 cells
Procedure: To block binding to Fc receptors, RAW264.7 cells were incubated for 30 minutes at 4° C. with 500 pg/mL mouse IgG (Jackson ImmunoResearch, Cat #015-000-003) diluted in staining buffer, while B16F10.9 cells remained in staining buffer. […] The signal to noise (S/N) was determined by calculating the ratio of the anti-MSR1 antibodies or the control antibodies MFI to the unstained sample MFI (Table 11).

MFI [MFI] | S/N (MFI over unstained MFI) | Binder
3420 | 1 | B10
4570 | 1 | B11
3430 | 1 | B12

Biological target: T4, human MSR1 extracellular domain …
Assay: competition ELISA, plate-coated His9-hMSR1; 100 nM antibody, competitor ligand Ac-LDL
Procedure: (§3) Buffer alone was also added to wells on each coat. […] This assay was conducted in four different assay runs.
(§4) Data analysis was performed using a sigmoidal dose-response model within Prism™ software (GraphPad).

% Blocking [%] | Binder
-40 | B13

Biological target: T5, full length human MSR1 with a …
Assay: cell-based or functional assay

% Inhibition of Dil-Acetylated LDL uptake [%] | % Inhibition of Dil-Oxidized LDL uptake [%] | IC50 of Dil-Acetylated LDL uptake inhibition [pM] | IC50 of Dil-Oxidized LDL uptake inhibition [pM] | Binder
62 | 86 |  |  | B10
42 | 76 | > 100000 |  | B11
46 | 70 | 2600 | 4900 | B12

Biological target: T4, human MSR1 extracellular domain …
Assay: competition ELISA, plate-coated His9-hMSR1; 300 nM antibody, competitor ligand biot-AGE-BSA
Procedure: as §3, §4

% Blocking [%] | Binder
-8 | B13
-1 | B14

Reference: patent US20190367631A1 (Regeneron, published 2019)
